Where no end group is shown, it is not given here.
B1: Phage-1427 (peptide)
peptide: TCAAGATYEWPYCF
B2: Phage-1430 (peptide)
peptide: TCAAGATYEWPTCL
B3: Phage-1463 peptide (Peptide-92 library, SEQ ID NO: 1759) (peptide)
peptide: SCAAGASYSWPACF
B4: Phage-1428 (peptide)
peptide: WCAAVFSYTWSPCL
B5: Phage-1417 (peptide)
peptide: MCAAGATYPWPLCL
modifications: cysteine pairing not given here; also: fused to phage pIII protein
B6: Phage-1416 (Peptide-92 library clone) (peptide)
peptide: TCAAGANYPWPYCL
B7: Phage-1467 peptide (Peptide-92 library, SEQ ID NO: 1763) (peptide)
peptide: TCAAGAHYPWPYCL
B8: Phage-1421 (peptide)
peptide: SCAAGATYSWPMCL
B9: Phage-1468 peptide (Peptide-92 library, SEQ ID NO: 1764) (peptide)
peptide: WCAEFFNYHWPLCF
B10: Phage-1422 (peptide)
peptide: LCAEFFNYPWPLCL
B11: Phage-1470 peptide (Peptide-92 library, SEQ ID NO: 1766) (peptide)
peptide: SCAAGASYPWPQCL
B12: Phage-1406 (Peptide-92 library clone) (peptide)
peptide: MCSAGAMYPWPTCL
B13: Phage-1461 peptide (Peptide-92 library, SEQ ID NO: 1757) (peptide)
peptide: YCSAGAQWPWPICL
B14: Phage-1472 peptide (Peptide-92 library, SEQ ID NO: 1768) (peptide)
peptide: GCAAGAHYPWPFCL
B15: Phage-1465 peptide (Peptide-92 library, SEQ ID NO: 1761) (peptide)
peptide: LCKPGVPYQWPTCL
B16: Phage-1412 (Peptide-92 library clone) (peptide)
peptide: LCEEFADYPWPMCL
B17: Phage-1401 (peptide)
peptide: TCSEGATYTWPWCF
B18: Phage-1469 peptide (Peptide-92 library, SEQ ID NO: 1765) (peptide)
peptide: TCSAGFSLQLSICL
B19: Phage-1462 peptide (Peptide-92 library, SEQ ID NO: 1758) (peptide)
peptide: TCAAGASYQWPLCF
B20: Phage-1400 (peptide)
peptide: TCAAGATYAWPECL
B21: Phage-1418 (peptide)
peptide: TCAAGATYSWPWCF
B22: Phage-1424 (peptide)
peptide: MCAAGAHYTWPTCL
modifications: cysteine pairing not given here; also: fused to phage pIII protein
B23: Phage-1420 (peptide)
peptide: SCAAVFSYSWPMCF
B24: Phage-1410 (Peptide-92 library clone) (peptide)
peptide: TCSAGFHYEWPRCL
B25: Phage-1403 (Peptide-92 library clone) (peptide)
peptide: TCSAGATYVWPQCF
B26: Phage-1423 (peptide)
peptide: QCSAGAAWPWPFCL
B27: Phage-1429 (peptide)
peptide: TCAAGAAYTWPACF
B28: Phage-1426 (peptide)
peptide: MCSAGANYPWPWCL
B29: Phage-1402 (peptide)
peptide: TCAAGAHYLWPWCM
B30: Phage-1466 peptide (Peptide-92 library, SEQ ID NO: 1762) (peptide)
peptide: MCTAGALYNWPTCL
B31: Phage-1413 (Peptide-92 library clone) (peptide)
peptide: TCAAGATYSWPMCF
B32: Phage-1414 (Peptide-92 library clone) (peptide)
peptide: LCAAGASYPWPTCL
B33: Phage-1407 (Peptide-92 library clone) (peptide)
peptide: TCAAGASYAWPWCL
B34: Phage-1408 (Peptide-92 library clone) (peptide)
peptide: TCSAGASWAWPWCF
B35: Phage-1405 (Peptide-92 library clone) (peptide)
peptide: TCAAGATYKWPACL
B36: Phage-1409 (Peptide-92 library clone) (peptide)
peptide: TCAAGAMWHWPVCL
B37: Phage-1415 (Peptide-92 library clone) (peptide)
peptide: HCAAGAHYPWPACL
B38: Phage-1419 (peptide)
peptide: TCAAGAHYTWPECF
B39: Phage-1411 (Peptide-92 library clone) (peptide)
peptide: LCAAGFKYPWPLCL
B40: Phage-1464 peptide (Peptide-92 library, SEQ ID NO: 1760) (peptide)
peptide: SCSAGFHYPWPICL
B41: Phage-1404 (Peptide-92 library clone) (peptide)
peptide: GCAAGATYPWPSCL
B42: Phage-1425 (peptide)
peptide: TCSAGATYEWPWCM
B43: Phage-1471 peptide (Peptide-92 library, SEQ ID NO: 1767) (peptide)
peptide: LCTAGLAYNWPTCL
B44: Phage-1397 (peptide)
peptide: SCSAGAMYTWPTCL
B45: Phage-1398 (peptide)
peptide: QCAAGASYPWPMCL
B46: Phage-1399 (peptide)
peptide: YCAAGATYPWPLCL

Key:
[1] = target: Anti-CD28 Fab (SEQ ID NOs: 696, 697); experiment: phage binding ELISA; Fab-coated wells pre-incubated with CD28 antigen as competitor, anti-M13 HRP detection;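 further: crude clonal phage supernatants added without washing after the CD28 pre-incubation, with wells given blocking buffer only (no CD28) as the reference, bound phage read after washing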
Target sequence in this assay (VH, as listed by the source, chain 1 of 2): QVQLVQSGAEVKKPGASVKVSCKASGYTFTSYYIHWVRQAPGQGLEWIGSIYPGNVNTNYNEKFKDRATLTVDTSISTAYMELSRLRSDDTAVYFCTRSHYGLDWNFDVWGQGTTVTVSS
Target sequence in this assay (VL, as listed by the source, chain 2 of 2): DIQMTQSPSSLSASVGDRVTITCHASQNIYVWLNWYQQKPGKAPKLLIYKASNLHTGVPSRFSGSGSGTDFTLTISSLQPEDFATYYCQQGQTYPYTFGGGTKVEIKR
Procedure: (§1) Clonal phage were harvested as crude supematants and screened via standard ELISAs. […] Prior to the addition of clonal phage, wells were incubated with blocking buffer and CD28 antigen or blocking buffer alone. Without washing or aspirating, clonal phage supematants were then added to the wells and incubated for a short time. Wells were then washed followed by detection of bound phage using a horse radish conjugated anti-M13 antibody. Clonal phage of interest were then sent for sequence analysis.

[2] = target: Anti-CD28 Fab (SEQ ID NOs: 696, 697); experiment: phage binding ELISA; biotinylated anti-CD28 Fab on neutravidin plate, clonal phage supernatant, anti-M13 HRP detection;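 further: wells pretreated with blocking buffer, either plus or minus CD28 antigen, then given crude phage supernatant briefly without washing in between, then washed before anti-M13 HRP readout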
Target sequence in this assay (VH, as listed by the source, chain 1 of 2): as the sequence (VH, as listed by the source, chain 1 of 2) above
Target sequence in this assay (VL, as listed by the source, chain 2 of 2): as the sequence (VL, as listed by the source, chain 2 of 2) above
Procedure: (§2) Clonal phage were harvested as crude supematants and screened via standard ELISAs. […] Prior to the addition of clonal phage, wells were incubated with blocking buffer and CD28 antigen or blocking buffer alone. Without washing or aspirating, clonal phage supematants were then added to the wells and incubated for a short time. Wells were then washed followed by detection of bound phage using a horse radish conjugated anti-M13 antibody.

[3] = target: Anti-CD28 Fab (SEQ ID NOs: 696, 697); experiment: phage binding ELISA; anti-CD28 Fab on plate pre-incubated with CD28 antigen as competitor
Target sequence in this assay (VH, as listed by the source, chain 1 of 2): as the sequence (VH, as listed by the source, chain 1 of 2) above
Target sequence in this assay (VL, as listed by the source, chain 2 of 2): as the sequence (VL, as listed by the source, chain 2 of 2) above
Procedure: as §2

[4] = target: Anti-CD28 Fab (SEQ ID NOs: 696, 697); experiment: phage binding ELISA; biotinylated anti-CD28 Fab on neutravidin plate, clonal phage detected with anti-M13 HRP
Target sequence in this assay (VH, as listed by the source, chain 1 of 2): as the sequence (VH, as listed by the source, chain 1 of 2) above
Target sequence in this assay (VL, as listed by the source, chain 2 of 2): as the sequence (VL, as listed by the source, chain 2 of 2) above
Procedure: as §2

[5] = target: T1, Anti-CD28 Fab (SEQ ID NOs: 696, 697); experiment: phage binding ELISA; clonal phage on plate-captured biotinylated anti-CD28 Fab
T1 construct: In the phage ELISA the Fab was biotinylated and captured on neutravidin coated plates
T1 sequence (VH, as listed by the source, chain 1 of 2): as the sequence (VH, as listed by the source, chain 1 of 2) above
T1 sequence (VL, as listed by the source, chain 2 of 2): as the sequence (VL, as listed by the source, chain 2 of 2) above
Procedure: as §2

[6] = target: T1, Anti-CD28 Fab (SEQ ID NOs: 696, 697); experiment: phage binding ELISA; clonal phage on plate-captured anti-CD28 Fab pre-incubated with CD28 antigen (competitor)
Procedure: as §1

[7] = target: T2, Anti-CD28 Fab (SEQ ID NOs: 696, 697) (biotinylated (site not given)); experiment: phage binding ELISA on captured anti-CD28 Fab; competitor: CD28 antigen added to the wells before the phage
[8] = target: T2, Anti-CD28 Fab (SEQ ID NOs: 696, 697); experiment: phage binding ELISA; biotinylated anti-CD28 Fab on neutravidin plate, clonal phage detected with anti-M13-HRP;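 further: crude clonal phage supernatants added briefly to wells preincubated in blocking buffer with or without CD28 antigen, then washed before detection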
Procedure: as §1

T2 sequence (VH, as listed by the source, chain 1 of 2): as the sequence (VH, as listed by the source, chain 1 of 2) above
T2 sequence (VL, as listed by the source, chain 2 of 2): as the sequence (VL, as listed by the source, chain 2 of 2) above

Binder	Anti-CD28 Fab signal in the presence of CD28 [1]	Anti-CD28 Fab (SEQ ID NOs: 696, 697) signal [2]	Anti-CD28 Fab (SEQ ID NOs: 696, 697) signal [5]	Anti-CD28 Fab signal in the presence of CD28 [6]	other results
B1	0.06	1.96	–	–	–
B2	0.08	1.96	–	–	–
B3	–	–	–	–	Anti-CD28 Fab signal in the presence of CD28 [3]: 0.07; Anti-CD28 Fab (SEQ ID NOs: 696, 697) signal [4]: 1.79
B4	0.07	1.96	–	–	–
B5	0.07	1.99	–	–	–
B6	–	–	1.99	0.14	–
B7	–	–	–	–	Anti-CD28 Fab signal in the presence of CD28 [3]: 0.05; Anti-CD28 Fab (SEQ ID NOs: 696, 697) signal [4]: 1.77
B8	0.09	1.99	–	–	–
B9	–	–	–	–	Anti-CD28 Fab signal in the presence of CD28 [3]: 0.06; Anti-CD28 Fab (SEQ ID NOs: 696, 697) signal [4]: 1.77
B10	0.06	1.98	–	–	–
B11	–	–	–	–	Anti-CD28 Fab signal in the presence of CD28 [3]: 0.11; Anti-CD28 Fab (SEQ ID NOs: 696, 697) signal [4]: 1.77
B12	–	–	2.04	0.08	–
B13	–	–	–	–	Anti-CD28 Fab signal in the presence of CD28 [3]: 0.08; Anti-CD28 Fab (SEQ ID NOs: 696, 697) signal [4]: 1.79
B14	–	–	–	–	Anti-CD28 Fab signal in the presence of CD28 [3]: 0.06; Anti-CD28 Fab (SEQ ID NOs: 696, 697) signal [4]: 1.76
B15	–	–	–	–	Anti-CD28 Fab signal in the presence of CD28 [3]: 0.07; Anti-CD28 Fab (SEQ ID NOs: 696, 697) signal [4]: 1.78
B16	–	–	2.01	0.06	–
B17	–	–	–	–	Anti-CD28 Fab signal in the presence of CD28 [7]: 0.06; Anti-CD28 Fab (SEQ ID NOs: 696, 697) signal [8]: 2.05
B18	–	–	–	–	Anti-CD28 Fab signal in the presence of CD28 [3]: 0.06; Anti-CD28 Fab (SEQ ID NOs: 696, 697) signal [4]: 1.77
B19	–	–	–	–	Anti-CD28 Fab signal in the presence of CD28 [3]: 0.07; Anti-CD28 Fab (SEQ ID NOs: 696, 697) signal [4]: 1.79
B20	–	–	–	–	Anti-CD28 Fab signal in the presence of CD28 [7]: 0.11; Anti-CD28 Fab (SEQ ID NOs: 696, 697) signal [8]: 2.08
B21	0.07	1.99	–	–	–
B22	0.07	1.97	–	–	–
B23	0.06	1.99	–	–	–

Binder	Anti-CD28 Fab signal in the presence of CD28 [1]	Anti-CD28 Fab (SEQ ID NOs: 696, 697) signal [2]	Anti-CD28 Fab (SEQ ID NOs: 696, 697) signal [5]	Anti-CD28 Fab signal in the presence of CD28 [6]	other results
B24	–	–	2.02	0.05	–
B25	–	–	2.05	0.07	–
B26	0.08	1.97	–	–	–
B27	0.06	1.96	–	–	–
B28	0.08	1.97	–	–	–
B29	–	–	–	–	Anti-CD28 Fab signal in the presence of CD28 [7]: 0.08; Anti-CD28 Fab (SEQ ID NOs: 696, 697) signal [8]: 2.05
B30	–	–	–	–	Anti-CD28 Fab signal in the presence of CD28 [3]: 0.09; Anti-CD28 Fab (SEQ ID NOs: 696, 697) signal [4]: 1.78
B31	–	–	2	0.07	–
B32	–	–	2	0.1	–
B33	–	–	2.03	0.08	–
B34	–	–	2.03	0.08	–
B35	–	–	2.05	0.09	–
B36	–	–	2.03	0.09	–
B37	–	–	2	0.12	–
B38	0.07	1.99	–	–	–
B39	–	–	2.02	0.07	–
B40	–	–	–	–	Anti-CD28 Fab signal in the presence of CD28 [3]: 0.07; Anti-CD28 Fab (SEQ ID NOs: 696, 697) signal [4]: 1.79
B41	–	–	2.05	0.06	–
B42	0.07	1.97	–	–	–
B43	–	–	–	–	Anti-CD28 Fab signal in the presence of CD28 [3]: 0.05; Anti-CD28 Fab (SEQ ID NOs: 696, 697) signal [4]: 1.77
B44	–	–	–	–	Anti-CD28 Fab signal in the presence of CD28 [7]: 0.06; Anti-CD28 Fab (SEQ ID NOs: 696, 697) signal [8]: 2.09
B45	–	–	–	–	Anti-CD28 Fab signal in the presence of CD28 [7]: 0.08; Anti-CD28 Fab (SEQ ID NOs: 696, 697) signal [8]: 2.08
B46	–	–	–	–	Anti-CD28 Fab signal in the presence of CD28 [7]: 0.08; Anti-CD28 Fab (SEQ ID NOs: 696, 697) signal [8]: 2.08
